Measured values: article PMC5303827 (Nature Communications, 2017)

T1: Ufd2p (S. cerevisiae, UniProt P54860 1-961)
T1 construct: Ufd2p, S. cerevisiae, amino acids 1-961; also called wild-type Ufd2p; source: E. coli Rosetta (DE3), purified
T1 sequence (looked up): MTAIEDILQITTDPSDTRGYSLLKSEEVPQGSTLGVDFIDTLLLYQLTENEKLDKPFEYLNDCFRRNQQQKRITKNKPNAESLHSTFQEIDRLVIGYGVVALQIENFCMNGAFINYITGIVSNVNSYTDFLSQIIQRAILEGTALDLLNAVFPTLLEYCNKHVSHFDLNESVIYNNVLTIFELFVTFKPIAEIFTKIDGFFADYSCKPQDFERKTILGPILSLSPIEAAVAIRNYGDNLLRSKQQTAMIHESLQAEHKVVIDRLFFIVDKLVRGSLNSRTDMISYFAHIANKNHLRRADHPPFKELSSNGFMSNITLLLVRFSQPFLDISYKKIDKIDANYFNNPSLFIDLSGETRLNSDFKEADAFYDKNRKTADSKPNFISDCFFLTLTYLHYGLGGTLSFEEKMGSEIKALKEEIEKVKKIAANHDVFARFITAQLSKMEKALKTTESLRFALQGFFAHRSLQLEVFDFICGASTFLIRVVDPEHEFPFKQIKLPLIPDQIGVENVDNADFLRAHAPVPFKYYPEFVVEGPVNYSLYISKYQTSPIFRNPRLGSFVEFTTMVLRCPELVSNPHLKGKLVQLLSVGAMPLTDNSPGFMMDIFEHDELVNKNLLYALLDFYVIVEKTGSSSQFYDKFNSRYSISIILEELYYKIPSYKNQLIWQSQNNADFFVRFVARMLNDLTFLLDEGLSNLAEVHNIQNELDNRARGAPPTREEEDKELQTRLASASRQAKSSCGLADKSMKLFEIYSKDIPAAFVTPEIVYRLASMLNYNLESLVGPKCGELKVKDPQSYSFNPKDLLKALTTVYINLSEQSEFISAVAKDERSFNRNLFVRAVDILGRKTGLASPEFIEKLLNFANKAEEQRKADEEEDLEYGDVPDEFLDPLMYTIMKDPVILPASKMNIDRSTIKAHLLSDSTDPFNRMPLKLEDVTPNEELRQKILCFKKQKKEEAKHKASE

T2: Ufd2p NLM (S. cerevisiae, UniProt P54860 1-961, E51A | K52A | L53A | D54A | K55A | E105A | N106A | M109A | N110A)
T2 construct: Ufd2p, S. cerevisiae, amino acids 1-961, two N-terminal loops mutated to alanine; prey of the GST-Rad23p pull-down and enzyme of the ubiquitination reactions; also called Ufd2 NLM
T2 sequence (looked up): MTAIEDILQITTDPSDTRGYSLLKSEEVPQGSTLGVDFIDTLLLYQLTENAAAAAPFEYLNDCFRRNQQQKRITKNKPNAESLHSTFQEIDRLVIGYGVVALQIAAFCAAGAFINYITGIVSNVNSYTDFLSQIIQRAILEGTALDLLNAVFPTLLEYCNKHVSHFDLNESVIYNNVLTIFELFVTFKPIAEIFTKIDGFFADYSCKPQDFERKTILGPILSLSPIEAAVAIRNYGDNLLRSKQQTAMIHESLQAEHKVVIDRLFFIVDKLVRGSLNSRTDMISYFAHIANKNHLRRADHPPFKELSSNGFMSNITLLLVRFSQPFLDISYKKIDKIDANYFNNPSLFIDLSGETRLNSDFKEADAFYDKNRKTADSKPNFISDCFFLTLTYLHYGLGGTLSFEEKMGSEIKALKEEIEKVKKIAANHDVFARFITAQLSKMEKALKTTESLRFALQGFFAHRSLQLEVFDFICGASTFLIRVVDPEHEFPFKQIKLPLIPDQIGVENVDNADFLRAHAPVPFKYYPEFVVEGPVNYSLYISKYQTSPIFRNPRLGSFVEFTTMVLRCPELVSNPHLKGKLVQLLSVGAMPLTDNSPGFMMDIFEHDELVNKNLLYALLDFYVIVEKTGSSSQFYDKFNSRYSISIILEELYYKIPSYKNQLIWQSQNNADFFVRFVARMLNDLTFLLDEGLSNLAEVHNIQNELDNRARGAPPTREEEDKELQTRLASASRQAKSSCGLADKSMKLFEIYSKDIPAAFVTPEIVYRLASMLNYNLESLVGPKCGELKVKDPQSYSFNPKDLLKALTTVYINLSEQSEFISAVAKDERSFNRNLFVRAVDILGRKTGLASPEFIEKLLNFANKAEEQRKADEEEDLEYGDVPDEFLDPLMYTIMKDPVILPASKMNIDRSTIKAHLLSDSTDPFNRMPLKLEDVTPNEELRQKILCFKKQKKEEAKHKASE

T3: wild-type Ufd2p (GST pull-down with Rad23p, Supplementary Fig. 14) (S. cerevisiae, UniProt P54860 1-961)
T3 construct: Ufd2p, S. cerevisiae; amino acids 1-961; May be the same as m2 if Ufd2p was the GST-tagged bait
T3 sequence (looked up): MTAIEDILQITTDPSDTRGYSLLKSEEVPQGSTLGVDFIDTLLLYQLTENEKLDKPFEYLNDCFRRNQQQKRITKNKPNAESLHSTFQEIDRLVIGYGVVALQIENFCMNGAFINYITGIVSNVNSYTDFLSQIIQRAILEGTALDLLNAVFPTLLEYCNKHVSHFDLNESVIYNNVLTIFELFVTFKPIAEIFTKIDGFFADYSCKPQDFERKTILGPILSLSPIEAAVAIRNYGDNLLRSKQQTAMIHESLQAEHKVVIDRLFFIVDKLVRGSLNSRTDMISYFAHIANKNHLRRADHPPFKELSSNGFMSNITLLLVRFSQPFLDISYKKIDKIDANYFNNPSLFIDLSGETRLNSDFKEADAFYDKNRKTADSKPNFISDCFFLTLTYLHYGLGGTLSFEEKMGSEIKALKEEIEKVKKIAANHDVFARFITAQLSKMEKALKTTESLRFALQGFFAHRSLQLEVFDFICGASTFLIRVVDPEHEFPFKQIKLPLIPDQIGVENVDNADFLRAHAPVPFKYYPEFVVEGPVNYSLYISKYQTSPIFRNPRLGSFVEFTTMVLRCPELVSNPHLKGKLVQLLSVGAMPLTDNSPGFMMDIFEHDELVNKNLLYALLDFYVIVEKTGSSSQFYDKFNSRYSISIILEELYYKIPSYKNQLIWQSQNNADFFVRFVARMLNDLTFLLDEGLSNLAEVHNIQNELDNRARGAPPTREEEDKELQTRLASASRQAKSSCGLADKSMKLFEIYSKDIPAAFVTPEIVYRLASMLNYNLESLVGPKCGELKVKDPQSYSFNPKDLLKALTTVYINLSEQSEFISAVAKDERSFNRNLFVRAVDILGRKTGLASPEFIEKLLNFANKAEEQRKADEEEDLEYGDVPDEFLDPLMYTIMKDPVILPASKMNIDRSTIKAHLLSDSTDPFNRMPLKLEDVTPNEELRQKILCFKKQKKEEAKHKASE

T4: Ufd2p NLM (GST pull-down with Rad23p, Supplementary Fig. 14) (S. cerevisiae, UniProt P54860 1-961, E51A | K52A | L53A | D54A | K55A | E105A | N106A | M109A | N110A)
T4 construct: Ufd2p, S. cerevisiae; 1-961 with residues of the two N-terminal loops mutated to alanine; May be the same as m12 if Ufd2p NLM was the GST-tagged bait
T4 sequence (looked up): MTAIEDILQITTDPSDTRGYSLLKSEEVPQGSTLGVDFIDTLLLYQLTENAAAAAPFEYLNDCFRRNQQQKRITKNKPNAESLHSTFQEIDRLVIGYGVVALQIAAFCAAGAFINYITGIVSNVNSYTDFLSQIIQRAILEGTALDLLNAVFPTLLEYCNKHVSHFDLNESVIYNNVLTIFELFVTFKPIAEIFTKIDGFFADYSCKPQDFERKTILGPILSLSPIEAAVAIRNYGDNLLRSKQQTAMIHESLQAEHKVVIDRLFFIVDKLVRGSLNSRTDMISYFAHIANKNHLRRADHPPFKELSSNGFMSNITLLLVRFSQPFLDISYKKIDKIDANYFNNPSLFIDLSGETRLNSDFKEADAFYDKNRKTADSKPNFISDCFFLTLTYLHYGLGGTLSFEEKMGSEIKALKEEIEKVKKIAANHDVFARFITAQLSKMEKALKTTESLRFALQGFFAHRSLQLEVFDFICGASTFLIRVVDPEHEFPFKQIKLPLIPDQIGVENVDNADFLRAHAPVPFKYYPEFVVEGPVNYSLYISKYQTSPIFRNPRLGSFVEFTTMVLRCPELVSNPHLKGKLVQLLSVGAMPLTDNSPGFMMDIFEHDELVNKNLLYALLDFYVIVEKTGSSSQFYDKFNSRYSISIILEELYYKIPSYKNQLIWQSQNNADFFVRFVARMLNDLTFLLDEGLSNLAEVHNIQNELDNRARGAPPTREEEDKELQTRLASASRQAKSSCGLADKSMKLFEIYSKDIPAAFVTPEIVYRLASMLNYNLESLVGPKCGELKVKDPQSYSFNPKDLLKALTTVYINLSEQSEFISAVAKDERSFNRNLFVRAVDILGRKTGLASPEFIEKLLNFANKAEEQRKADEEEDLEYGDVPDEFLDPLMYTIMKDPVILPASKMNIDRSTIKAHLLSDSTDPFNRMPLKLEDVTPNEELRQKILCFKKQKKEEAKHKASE


Experiments:
Details in all cases: both partners purified
[1] = biological target: T1, Ufd2p; assay: pull-down; GST-Rad23p used to pull down Ufd2p, Ufd2p N mut-1 or Ufd2p NLM; blot with anti-Ufd2; GST as control
[2] = biological target: T2, Ufd2p NLM; assay: as above
[3] = biological target: T3, wild-type Ufd2p (GST pull-down with …); assay: pull-down; GST pull-down of Ufd2p or Ufd2p NLM with Rad23p (Supplementary Fig. 14); which partner carried GST is not told
[4] = biological target: T4, Ufd2p NLM (GST pull-down with Rad23p, …); assay: as above

| binding result [1] | binding result [2] | binding result [3] | binding result [4] | Binder |
| --- | --- | --- | --- | --- |
| binds | binds |  |  | GST-Rad23p (natural protein, S. cerevisiae, UniProt P32628 1-398, looked up, Rad23p, ubiquitin receptor for the proteasome, yeast; source: E. coli Rosetta (DE3), purified (Glutathione Sepharose 4B, size exclusion chromatography); not shown: GST, N-terminal, kept) MVSLTFKNFKKEKVPLDLEPSNTILETKTKLAQSISCEESQIKLIYSGKVLQDSKTVSECGLKDGDQVVFMVSQKKSTKTKVTEPPIAPESATTPGRENSTEASPSTDASAAPAATAPEGSQPQEEQTATTERTESASTPGFVVGTERNETIERIMEMGYQREEVERALRAAFNNPDRAVEYLLMGIPENLRQPEPQQQTAAAAEQPSTAATTAEQPAEDDLFAQAAQGGNASSGALGTTGGATDAAQGGPPGSIGLTVEDLLSLRQVVSGNPEALAPLLENISARYPQLREHIMANPEVFVSMLLEAVGDNMQDVMEGADDMVEGEDIEVTGEAAAAGLGQGEGEGSFQVDYTPEDDQAISRLCELGFERDLVIQVYFACDKNEEAAANILFSDHAD |
|  |  | binds | binds | Rad23p (GST pull-down with Ufd2p, Supplementary Fig. 14) (natural protein, UniProt P32628 1-398, looked up, Rad23p; May be the same as m19 if Rad23p was the GST-tagged bait) MVSLTFKNFKKEKVPLDLEPSNTILETKTKLAQSISCEESQIKLIYSGKVLQDSKTVSECGLKDGDQVVFMVSQKKSTKTKVTEPPIAPESATTPGRENSTEASPSTDASAAPAATAPEGSQPQEEQTATTERTESASTPGFVVGTERNETIERIMEMGYQREEVERALRAAFNNPDRAVEYLLMGIPENLRQPEPQQQTAAAAEQPSTAATTAEQPAEDDLFAQAAQGGNASSGALGTTGGATDAAQGGPPGSIGLTVEDLLSLRQVVSGNPEALAPLLENISARYPQLREHIMANPEVFVSMLLEAVGDNMQDVMEGADDMVEGEDIEVTGEAAAAGLGQGEGEGSFQVDYTPEDDQAISRLCELGFERDLVIQVYFACDKNEEAAANILFSDHAD |
